The source of these data is article PMC10155811 (2022).

One test deals with BubR1. As to the kind of experiment: ITC; unphosphorylated peptide ….
A further test deals with BubR1-p. As to the kind of experiment: ITC; doubly phosphorylated peptide KLpSPIIEDpSR. For orientation: ITC needs no label: the signal is the heat of the interaction.
Test [1] deals with Bub1 peptides encompassing the putative PP2A-B56 binding motif (amino acids 654-FSPIQE-659) (human, UniProt O43683). In words: ITC; doubly phosphorylated Bub1 peptide KFpSPIQEKpSP.

B1: B56α (natural protein)
chain: not shown
Consider B1, for which the equilibrium dissociation constant (Kd) (usually the concentration at which binding is half-saturated) in the test with BubR1 stood at 4.6 µM; with BubR1-p, 0.12 µM; in test [1] it was 41 µM.
